The results in this text go back to patent US20140348836A1 (published 2014).

Assay [1] concerns the target T1, human CD40 on cells (human, UniProt P25942 21-277). As to the kind of experiment: cell-based or functional assay.
The target in assay [2] is T1, human CD40 on cells. Put plainly: cell-based or functional assay. This is another data set of the same source.
In assay [3] the target is T1, human CD40 on cells. Put plainly: cell-based or functional assay. The source holds these as a separate data set.
Assay [4] has as its target T1, human CD40 on cells. Put plainly: cell-based or functional assay. This is another data set of the same source.
Assay [5] concerns the target T2, CD40hfc (R&Dsystems, USA) (UniProt P25942 21-193).
T2 construct: Bought reagent; also called immobilized CD40 receptor; target; not shown: Fc part ('hfc') of the bought fusion
As to the kind of experiment: SPR, physiological pH and 37 C. As to the method: (§1) The affinity measures of purified antibodies by surface plasmon resonance using the Biacore 3000 instrument was performed according to manufacturer's protocols.
(§2) The CD40hfc (R&Dsystems, USA) was immobilized to the BIAcore sensorchip, CMS, using conventional amine coupling. The anti-CD40 antibodies of the invention, (serially diluted 1/3 from 1-0.012 nM) were analysed for binding in HBS-P (GE, BR-1003-68) at a flow rate of 30 μl/min at 37° C. and pH 7.3. The association was followed for 3 minutes and the dissociation for 10 minutes. Regeneration was performed twice using 50 mM NaOH for 30 seconds. The kinetic parameters and the affinity constants were calculated using BlAevaluation 4.1 software.
A general note: In SPR one partner is held on a chip, and binding of the other changes the refractive index at the surface.

For assay [6], the target named is T1, human CD40 on cells. As to the kind of experiment: flow cytometry (FACS) on RAMOS cells. Here is the method:
(§3) The human Burkitt's lymphoma cell line RAMOS was used for binding analysis (ECACC, Sigma Aldrich, USA). The unconjugated anti-CD40 antibodies of the invention were assayed for binding to RAMOS cells.
(§4) RAMOS cells, approximately 125,000 cells, were incubated with anti-CD40 antibody, serially diluted 1/3 from 30-0.0015 μg/ml, for 30 minutes at 4° C. The cells were washed twice with FACS buffer and the secondary antibody, anti-human Ig Rabbit F(ab′)2/FITC (DAKO, Glostrup, Denmark), was subsequently added to the cells for another 30 minutes at 4° C. The cells were washed and analysed on a FACScalibur instrument, according to the manufacturer's instructions (Becton Dickinson, USA) and then the mean fluorescent intensity (“MFI”) was determined.

The target in assay [7] is T1, human CD40 on cells. Put plainly: flow cytometry (FACS) on RAMOS cells, anti-human Ig F(ab')2-FITC detection, MFI. As to the method: as §3, §4
(In general: In flow cytometry, cells or beads pass a laser one at a time.)

Assay [8] addresses T2, CD40hfc (R&Dsystems, USA). Put plainly: SPR (Biacore 3000), CD40hfc amine-coupled on chip, antibody as analyte, 37 C, pH 7.3. As to the method:
as §1, §2

The target in assay [9] is T2, CD40hfc (R&Dsystems, USA). Put plainly: SPR (Biacore 3000), CD40hfc amine-coupled on chip, antibody as analyte, 37 C, acetate buffer pH 5.4. Here is the method: as §1, §2
Alternatively, samples were incubated in Acetate buffer pH 5.4, 10 mM Acetate, 150 mM NaCl, 0.005% T20, at 37° C.

In general, EC50 refers to the concentration that produces a half-maximal response. As a reminder, the Kd is the free concentration of one partner at which half of the binding sites on the other are occupied at equilibrium, for simple one-to-one binding. A higher Kd goes with a looser complex. A word on the koff: it is the rate constant with which the complex falls apart. Higher therefore signals a short-lived complex. By kon is commonly meant the rate constant with which the complex forms. Low values mean slow association, high ones fast association.

T2 sequence (P25942 21-193 limits assumed): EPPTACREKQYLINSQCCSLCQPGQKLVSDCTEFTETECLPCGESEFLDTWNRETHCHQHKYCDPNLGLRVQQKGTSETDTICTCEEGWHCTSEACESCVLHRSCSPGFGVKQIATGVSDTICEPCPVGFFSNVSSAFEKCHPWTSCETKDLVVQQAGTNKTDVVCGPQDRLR
T1 sequence (P25942 21-277): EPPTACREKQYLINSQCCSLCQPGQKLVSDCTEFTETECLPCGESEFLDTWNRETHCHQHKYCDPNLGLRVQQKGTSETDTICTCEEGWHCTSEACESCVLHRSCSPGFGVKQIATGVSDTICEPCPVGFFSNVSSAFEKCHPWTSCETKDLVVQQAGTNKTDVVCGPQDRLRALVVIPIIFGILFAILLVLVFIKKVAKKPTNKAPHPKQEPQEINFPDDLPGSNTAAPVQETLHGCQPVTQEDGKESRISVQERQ

B1: Antibody clone A4 (antibody, human IgG1, lambda, V domains shown)
VH: EVQLLESGGGLVQPGGSLRLSCAASGFTFSTYGMHWVRQAPGKGLEWLSYISGGSSYIFYADSVRGRFTISRDNSENALYLQMNSLRAEDTAVYYCARILRGGSGMDLWGQGTLVTVSS
VL: QSVLTQPPSASGTPGQRVTISCTGSTSNIGAGYKVYWYQQLPGTAPKLLIYGNINRPSGVPDRFSGSKSGTSASLAISGLRSEDEADYYCAAWDDSLSGLVFGGGTKLTVLG
notes: Tested as purified antibody; full chains are assembled here from VH/VL plus these; also called A4 ANTI-CD40 ANTIBODY
As to B1, in the assay with human CD40 on cells [1], the “EC50 of CD80 up-regulation on monocyte-derived dendritic cells (FACS)” value came to 0.17 µg/mL, the “EC50 of CD86 up-regulation on monocyte-derived dendritic cells (FACS)” value was 0.13 µg/mL, the “EC50 of MHC II up-regulation on monocyte-derived dendritic cells (FACS)” value was 0.14 µg/mL and the “Maximum Fold Increase of CD80 on dendritic cells” value was 599 fold. Besides, in the assay with human CD40 on cells [1], the “Maximum Fold Increase of CD86 on dendritic cells” value was determined as 149 fold and the “Maximum Fold Increase of MHC II on dendritic cells” value came out at 851 fold. Also, in the assay with human CD40 on cells [2], the “Allo DC/T IFN-γ EC50” value stood at 0.04 µg/mL and the “Allo DC/T IFN-γ Max” value was 8.9 pg/mL. Also, the “Activation of B cells, EC50 (proliferation of CD19+ B cells, Cell titer-Glo)” value with human CD40 on cells [3] is 0.16 µg/mL. In addition, in the assay with human CD40 on cells [4], the “Fold change in potency versus B44 antibody (rescue of huCD40/WEHI-231 cells from apoptosis and growth arrest)” value came out at 46 fold. Besides, the “fold improvement of affinity versus B44” value in assay [5] is ~100 fold. Also, the “fold increase in potency (binding to RAMOS cells) versus B44” value in the assay with human CD40 on cells [6] was ~100 fold. Besides, in the assay with human CD40 on cells [7], the EC50 was 0.007 µg/mL. In [8], this molecule showed a Kd of 0.01 nM, a koff of 7.6e-05 s⁻¹ and a kon of 7.3e+06 M⁻¹ s⁻¹. Moreover, in [9], the Kd was 0.02 nM, the koff stood at 0.00022 s⁻¹ and the kon was 1.1e+07 M⁻¹ s⁻¹.
